Measurements published in patent publication US9228015B2, “Nogo receptor antagonists and methods of increasing neurite outgrowth” (Biogen Idec MA Inc., priority 2006, dated 2016).
Entries after “also recorded” stand apart in the source; their conditions may differ.

Tests used:
[1] = target: T1, OM-gp + sNogoR344-Fc (Rattus norvegicus, UniProt Q99M75, A303T/C287S/C43R/E284G/T53A); experiment: ELISA: inhibition of OM-gp binding to sNogoR344-Fc
T1 construct: amino acid residues 26-344 of rat Nogo receptor-1; made in house; CHO (DG44) is described only for sNogoR310-Fc
T1 sequence (Q99M75 26-344 C43R/T53A/E284G/C287S/A303T): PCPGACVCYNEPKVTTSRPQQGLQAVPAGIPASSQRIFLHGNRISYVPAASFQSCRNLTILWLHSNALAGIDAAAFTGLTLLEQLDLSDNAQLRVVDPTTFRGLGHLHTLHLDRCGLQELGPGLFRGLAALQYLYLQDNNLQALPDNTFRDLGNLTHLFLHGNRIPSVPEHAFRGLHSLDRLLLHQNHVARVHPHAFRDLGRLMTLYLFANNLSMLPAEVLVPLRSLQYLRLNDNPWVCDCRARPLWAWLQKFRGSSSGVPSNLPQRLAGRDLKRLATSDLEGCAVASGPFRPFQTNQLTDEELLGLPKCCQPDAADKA
Procedure: 0.5 μg of a soluble Nogo receptor-1 fusion protein comprising amino acid residues 26-344 of rat Nogo receptor-1 and the hinge and Fc region of the rat IgG1 molecule (sNogoR344-Fc) produced as described below was immobilized on […] of protein-A- or wheatgerm agglutinin-conjugated SPA beads (Amersham Pharmacia Biotech) for 2 hours at 25° C. SPA beads coupled with Fc-sNogoR-1, anti-Nogo receptor-1 mAb and 1 μl ^125I-Nogo66 (Amersham, 2000 Ci/mmol, 1 nM) in […] of the HEPES-buffered incubation medium (10 mM HEPES, pH 7.4, 0.1% bovine serum albumin, 0.1% ovalbumin, 2 mM MgCl2, 2 mM CaCl2 and protease inhibitors) was added to each sample well. After 16 hours, radioactivity was measured in quadruplicate samples using a TopCount® (Packard). IC50 values were calculated from a curve-fit analysis (FIG. 3) (PRISM, GraphPad Software, NJ). In some experiments, we also used AP-ligand conjugates (e.g. AP-Nogo66) and detected binding by monitoring alkaline phosphatase activity. We also assayed the ability of the mAbs to block binding of the ligands MAG-Fc and AP-OM-gp to Nogo receptor-1.
Monoclonal antibodies 7E11, 5B10, 1H2, 3G5 and 2F7 all inhibited binding of Nogo66, MAG and OM-gp to sNogoR344-Fc. The calculated IC50 for Nogo66 for 7E11 and 1H2 were 400 nM and 60 nM, respectively. The data from ELISAs monitoring mAb-mediated inhibition of binding of the three ligands to Nogo receptor-1 are summarized in Table 6.
The percent displacement is shown at 30 nM antibody and the EC50 for certain mAbs determined from curve-fit analysis as described. “-” indicates no detectable activity and “ND” indicates not determined.
We also performed ELISA binding assays using the Fab-phage 141)5.

[2] = target: T2, rat NgR1 (Rattus norvegicus, UniProt Q99M75); experiment: Antibody binding specificity: rat Nogo receptor-1
T2 sequence (Q99M75 27-310): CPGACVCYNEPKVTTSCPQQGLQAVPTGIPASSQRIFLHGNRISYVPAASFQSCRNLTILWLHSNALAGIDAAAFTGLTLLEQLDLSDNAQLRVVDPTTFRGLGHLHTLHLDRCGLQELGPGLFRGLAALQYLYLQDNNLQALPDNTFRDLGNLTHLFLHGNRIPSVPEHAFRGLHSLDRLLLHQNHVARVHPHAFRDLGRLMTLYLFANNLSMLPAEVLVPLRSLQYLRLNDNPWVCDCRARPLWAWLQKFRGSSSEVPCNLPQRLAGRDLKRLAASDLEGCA

[3] = target: T3, mouse NgR1 (Mus musculus, UniProt Q99PI8); experiment: Antibody binding specificity: mouse Nogo receptor-1
T3 sequence (Q99PI8 27-447): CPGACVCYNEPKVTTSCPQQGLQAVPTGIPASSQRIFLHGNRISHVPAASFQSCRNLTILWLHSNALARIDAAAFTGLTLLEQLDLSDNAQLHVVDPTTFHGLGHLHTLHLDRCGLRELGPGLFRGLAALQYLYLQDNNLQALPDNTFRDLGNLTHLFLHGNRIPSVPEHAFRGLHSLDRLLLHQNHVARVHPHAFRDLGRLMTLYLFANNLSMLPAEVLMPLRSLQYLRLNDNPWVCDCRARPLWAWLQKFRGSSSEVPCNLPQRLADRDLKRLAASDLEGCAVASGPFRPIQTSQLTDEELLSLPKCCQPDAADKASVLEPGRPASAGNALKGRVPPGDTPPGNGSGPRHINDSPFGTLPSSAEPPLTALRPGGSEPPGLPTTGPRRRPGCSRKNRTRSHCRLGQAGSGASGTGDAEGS

[4] = target: T4, mouse NgR3 (Mus musculus, UniProt Q8K0S5); experiment: Antibody binding specificity: mouse Nogo receptor-3
T4 sequence (Q8K0S5 25-424): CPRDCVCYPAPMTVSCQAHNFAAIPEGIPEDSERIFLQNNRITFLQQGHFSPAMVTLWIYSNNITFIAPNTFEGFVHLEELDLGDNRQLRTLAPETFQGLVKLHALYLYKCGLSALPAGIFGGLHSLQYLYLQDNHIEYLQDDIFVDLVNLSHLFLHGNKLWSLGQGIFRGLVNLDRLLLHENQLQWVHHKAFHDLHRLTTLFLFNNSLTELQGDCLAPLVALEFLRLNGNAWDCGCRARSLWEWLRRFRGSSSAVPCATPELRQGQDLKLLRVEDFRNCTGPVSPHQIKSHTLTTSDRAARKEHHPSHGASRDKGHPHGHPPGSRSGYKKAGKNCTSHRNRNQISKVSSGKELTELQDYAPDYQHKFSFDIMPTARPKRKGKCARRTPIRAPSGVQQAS

B1: 7E11: murine monoclonal anti-Nogo receptor-1 antibody, immunogen rat Nogo receptor-1 residues 110-125, IgG1 kappa, ATCC PTA-4587 (antibody, V domains shown)
VH: VQLQESGAELVMPGASVKMSCKASGYTFTDYWMHWVKQRPGQGLEWIGAIDPSDSYSSYNQNFKGKATLTVDGSSSTAYMQLSSLTSEDSAVYYCARRITEAGAWFAYWGQGTTVT
VL: MKLPVRLLVLMFWIPASSSDVVMTQTPLSLPVSLGDQASISCRSSQSLVHSNGNTYLHWYLQKPGQSPKLLIYKVSNRFSGVPDRFSGSGSGTDFTLKISRVDAEDLGVYFCSQSTHVPFTFGGGTKLEIKRADAAPTVSISHH
modifications: 7E11 heavy chain; 7E11 light chain
notes: murine monoclonal anti-Nogo receptor-1 antibody, immunogen rat Nogo receptor-1 residues 110-125, IgG1 kappa, ATCC PTA-4587
inhibition of binding of OM-gp to sNogoR344-Fc [1]: inhibited | EC50 ([1]; curve-fit analysis): 150 nM | binding to rat Nogo receptor-1 [2]: bound; also recorded: binds well | binding to mouse Nogo receptor-1 [3]: not and poorly | binding to mouse Nogo receptor-3 [4]: not
